Assay results: the supplement of paper PMC7877785
± gives the uncertainty stated by the source.

Assay: self-splicing fitness, log relative to wild type (ln ratio); higher = more splicing; Tetrahymena group I intron in knt gene, E. coli kanamycin selection, DiMSum; sequences stand for … in CUCUCU…GGAGGGAAAAGUUAUCAGGCAUGCACCUGGUAGCUAGUCUUUAAACCAAUAGAUUGCAUCGGUUUAAAAGGCAAGACCGUCAAAUUGCGGGAAAGGGGUCAACAGCCGUUCAGUACCAAGUCUCAGGGGAAACUUUGAGAUGGCCUUGCAAAGGGUAUGGUAAUAAGCUGACGGACAUGGUCCUAACCACGCAGCCAAGUCCUAAGUCAACAGAUCUUCUGUUGAUAUGGAUGCAGUUCACAGACUAAAUGUCGGUCGGGGAAGAUGUAUUCUUCUCAUAAGAUAUAGUCGGACCUCUCCUUAAUGGGAGCUAGCGGAUGAAGUGAUGCAACACUGGAGCCGCUGGGAACUAAUUUGUAUGCGAAAGUAUAUUGAUUAGUUUUGGAGUACUCGUGGUCG
Procedure, shortened: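 The eight P1ex-region nucleotides of an intron in the knt kanamycin-resistance gene on pET-22b(+) were all randomised and the library put into E. coli BL21(DE3). Six replicate transformations were grown overnight at 37°C or 30°C on LB agar with or without 25 μg/mL kanamycin, together with 100 μg/mL carbenicillin, 50 μM IPTG and 0.2% rhamnose. Colonies were pooled and amplicon-sequenced on an Illumina HiSeq 2500. Fitness from DiMSum is the error-weighted combination of wild-type-normalised replicate fold changes, kanamycin over none.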

| Sequence | self-splicing fitness (ln) (30 °C) | self-splicing fitness (ln) (37 °C) |
| --- | --- | --- |
| UCCCAGCAAUAUUACGUGCA | -0.634 ± 0.06 | -0.597 ± 0.078 |
| UCCGAGCAAUAUUACGAAUG | -2.81 ± 0.17 | -2.94 ± 0.21 |
| UCCGAGCAAUAUUACGACUC | -3.61 ± 0.21 | -2.87 ± 0.34 |
| UCCGAGCAAUAUUACGAGUC |  | -2.16 ± 0.22 |
| UCCGAGCAAUAUUACGAUAA | -2 ± 0.22 | -2.41 ± 0.32 |
| UCCGAGCAAUAUUACGAUAG | -3.72 ± 0.24 | -2.22 ± 0.2 |
| UCCGAGCAAUAUUACGAUCA |  | -1.26 ± 0.25 |
| UCCGAGCAAUAUUACGAUUU | -3.56 ± 0.25 | -2.49 ± 0.44 |
| UCCGAGCAAUAUUACGCCAA |  | -2.4 ± 0.49 |
| UCCGAGCAAUAUUACGCGUA | -1.14 ± 0.098 | -0.936 ± 0.11 |
| UCCGAGCAAUAUUACGCUAG | -3.12 ± 0.31 | -2.75 ± 0.34 |
| UCCGAGCAAUAUUACGCUUU | -2.64 ± 0.26 | -3.01 ± 0.47 |
| UCCGAGCAAUAUUACGGACG | -3.59 ± 0.24 | -2.37 ± 0.25 |
| UCCGAGCAAUAUUACGGAGG | -2.66 ± 0.16 | -2.65 ± 0.24 |
| UCCGAGCAAUAUUACGGCAU | -2.13 ± 0.13 | -1.62 ± 0.097 |
| UCCGAGCAAUAUUACGGGGU | -2.7 ± 0.2 | -2.45 ± 0.28 |
| UCCGAGCAAUAUUACGGUGU | -1.74 ± 0.1 | -2.28 ± 0.17 |
| UCCGAGCAAUAUUACGUACG | -3.62 ± 0.47 | -2.34 ± 0.45 |
| UCCGAGCAAUAUUACGUCAG | -3.62 ± 0.24 | -1.07 ± 0.17 |
| UCCGAGCAAUAUUACGUGGG | -2.8 ± 0.17 | -2.56 ± 0.26 |
| UCCGAGCAAUAUUACGUGGU | -2.83 ± 0.29 | -2.29 ± 0.21 |
| UCCGAGCAAUAUUACGUUCA | -2.55 ± 0.2 | -3.16 ± 0.4 |
| UCCUAGCAAUAUUACGAACG | -1.85 ± 0.2 | -1.78 ± 0.3 |
| UCCUAGCAAUAUUACGACGA | 0.168 ± 0.12 | 0.868 ± 0.17 |
| UCCUAGCAAUAUUACGAGGG | -2.97 ± 0.25 | -2.7 ± 0.45 |
| UCCUAGCAAUAUUACGAGUA | -1.12 ± 0.14 | -0.911 ± 0.13 |

| Sequence | self-splicing fitness (ln) (30 °C) | self-splicing fitness (ln) (37 °C) |
| --- | --- | --- |
| UCCUAGCAAUAUUACGCACU | -1.17 ± 0.12 | -0.784 ± 0.12 |
| UCCUAGCAAUAUUACGCCCA | -1.65 ± 0.34 | -0.0863 ± 0.31 |
| UCCUAGCAAUAUUACGCUAA | -2.98 ± 0.31 | -3.02 ± 0.29 |
| UCCUAGCAAUAUUACGGAAG | -3.41 ± 0.28 | -1.23 ± 0.43 |
| UCCUAGCAAUAUUACGGCGU | -0.736 ± 0.087 | -0.557 ± 0.12 |
| UCCUAGCAAUAUUACGGGUG | -0.384 ± 0.07 | 0.124 ± 0.087 |
| UCCUAGCAAUAUUACGGUAG | -3.32 ± 0.32 | -2.28 ± 0.29 |
| UCCUAGCAAUAUUACGGUGA | -0.297 ± 0.053 | 0.225 ± 0.067 |
| UCCUAGCAAUAUUACGGUGU | -1.71 ± 0.067 | -0.222 ± 0.097 |
| UCCUAGCAAUAUUACGUCCG | -3.98 ± 0.25 | -3.81 ± 0.34 |
| UCCUAGCAAUAUUACGUCGG | -2.31 ± 0.19 | -0.128 ± 0.15 |
| UCCUAGCAAUAUUACGUGCA | -2.86 ± 0.29 | -1.72 ± 0.2 |
| UCCUAGCAAUAUUACGUUCC | -2.61 ± 0.27 | -1.72 ± 0.4 |
| UCGAAGCAAUAUUACGAAGC |  | -1.84 ± 0.47 |
| UCGAAGCAAUAUUACGACGA | -0.904 ± 0.12 | -0.374 ± 0.11 |
| UCGAAGCAAUAUUACGAUAU | -2.63 ± 0.31 | -1.52 ± 0.32 |
| UCGAAGCAAUAUUACGAUCU | -2.67 ± 0.21 | -2.44 ± 0.27 |
| UCGAAGCAAUAUUACGAUUG | -2.47 ± 0.27 | -1.73 ± 0.23 |
| UCGAAGCAAUAUUACGCCCU | -2.45 ± 0.2 | -1.7 ± 0.13 |
| UCGAAGCAAUAUUACGCCUG | -0.508 ± 0.14 | -0.022 ± 0.21 |
| UCGAAGCAAUAUUACGGAAG | -1.18 ± 0.2 | -2.11 ± 0.38 |
| UCGAAGCAAUAUUACGGCGA | -0.741 ± 0.12 | -0.539 ± 0.17 |
| UCGAAGCAAUAUUACGGGGA | -1.17 ± 0.13 | -0.644 ± 0.13 |
| UCGAAGCAAUAUUACGGGUG | -0.763 ± 0.083 | -0.756 ± 0.097 |
| UCGAAGCAAUAUUACGGUGC | -2.62 ± 0.25 |  |
| UCGAAGCAAUAUUACGUAAC | -2.1 ± 0.19 | -2.77 ± 0.38 |

| Sequence | self-splicing fitness (ln) (30 °C) | self-splicing fitness (ln) (37 °C) |
| --- | --- | --- |
| UCGAAGCAAUAUUACGUACU | -2.88 ± 0.1 | -1.67 ± 0.12 |
| UCGAAGCAAUAUUACGUGUU | -3.56 ± 0.2 | -2.47 ± 0.19 |
| UCGCAGCAAUAUUACGAAAG |  | -2.04 ± 0.36 |
| UCGCAGCAAUAUUACGAAAU | -3.62 ± 0.21 | -2.41 ± 0.24 |
| UCGCAGCAAUAUUACGACAA | -1.14 ± 0.19 | -1.48 ± 0.2 |
| UCGCAGCAAUAUUACGACAC | -1.67 ± 0.26 | -2.78 ± 0.41 |
| UCGCAGCAAUAUUACGACUU | -1.84 ± 0.2 | -0.512 ± 0.24 |
| UCGCAGCAAUAUUACGAGAC | -3.18 ± 0.35 | -1.6 ± 0.4 |
| UCGCAGCAAUAUUACGAGUC |  | -2.6 ± 0.38 |
| UCGCAGCAAUAUUACGAUAG | -2.26 ± 0.15 | -1.26 ± 0.17 |
| UCGCAGCAAUAUUACGCAAG | -3.01 ± 0.17 | -1.69 ± 0.25 |
| UCGCAGCAAUAUUACGCCCA | -0.827 ± 0.19 | 0.0722 ± 0.18 |
| UCGCAGCAAUAUUACGCGCG | -3.58 ± 0.29 | -2.08 ± 0.27 |
| UCGCAGCAAUAUUACGCUCC | -2.9 ± 0.46 |  |
| UCGCAGCAAUAUUACGCUCU | -3.55 ± 0.23 | -1.35 ± 0.13 |
| UCGCAGCAAUAUUACGGCAU | -1.99 ± 0.074 | -0.415 ± 0.077 |
| UCGCAGCAAUAUUACGGCUA | 0.198 ± 0.091 | 0.317 ± 0.098 |
| UCGCAGCAAUAUUACGGGGA | -1.31 ± 0.12 | -1.11 ± 0.1 |
| UCGCAGCAAUAUUACGUGAG | -0.263 ± 0.042 | -0.325 ± 0.063 |
| UCGCAGCAAUAUUACGUGCA | -2.17 ± 0.074 | -0.836 ± 0.071 |
| UCGCAGCAAUAUUACGUGCC | -2.66 ± 0.21 | -2.7 ± 0.36 |
| UCGCAGCAAUAUUACGUUGC |  | -4.15 ± 0.42 |
| UCGGAGCAAUAUUACGACGG | -3.56 ± 0.43 | -1.36 ± 0.29 |
| UCGGAGCAAUAUUACGAGGC | -2.74 ± 0.42 |  |
| UCGGAGCAAUAUUACGAGUU | -2.79 ± 0.33 |  |
| UCGGAGCAAUAUUACGCACG | -3.16 ± 0.34 | -0.819 ± 0.16 |

| Sequence | self-splicing fitness (ln) (30 °C) | self-splicing fitness (ln) (37 °C) |
| --- | --- | --- |
| UCGGAGCAAUAUUACGCAGC | -2.31 ± 0.5 |  |
| UCGGAGCAAUAUUACGCGAG | -3.29 ± 0.45 | -1.64 ± 0.27 |
| UCGGAGCAAUAUUACGCGGA | -2.32 ± 0.33 | 0.916 ± 0.15 |
| UCGGAGCAAUAUUACGGAAC | -3.36 ± 0.38 |  |
| UCGGAGCAAUAUUACGGAAG |  | -0.371 ± 0.41 |
| UCGGAGCAAUAUUACGGAGC |  | -1.64 ± 0.4 |
| UCGGAGCAAUAUUACGGUCG | -2.01 ± 0.15 | -0.73 ± 0.25 |
| UCGGAGCAAUAUUACGUCCA | -2.06 ± 0.48 | -0.639 ± 0.37 |
| UCGUAGCAAUAUUACGAACU | -3.21 ± 0.38 | -2.63 ± 0.33 |
| UCGUAGCAAUAUUACGACAA | -2.42 ± 0.29 | -1.5 ± 0.24 |
| UCGUAGCAAUAUUACGAGAC | -1.72 ± 0.37 | -3.18 ± 0.37 |
| UCGUAGCAAUAUUACGAGGU | -3.27 ± 0.21 | -2.06 ± 0.19 |
| UCGUAGCAAUAUUACGCAGG | -2.49 ± 0.18 | -2.17 ± 0.21 |
| UCGUAGCAAUAUUACGCAUC |  | -2.63 ± 0.36 |
| UCGUAGCAAUAUUACGCCAG | -1.49 ± 0.3 |  |
| UCGUAGCAAUAUUACGCCCG | -0.251 ± 0.19 | -0.113 ± 0.17 |
| UCGUAGCAAUAUUACGCGAG | -4.07 ± 0.23 | -2.43 ± 0.16 |
| UCGUAGCAAUAUUACGCGCU | -2.31 ± 0.19 | -1.78 ± 0.22 |
| UCGUAGCAAUAUUACGCGUG | -0.861 ± 0.1 | -0.648 ± 0.096 |
| UCGUAGCAAUAUUACGGACA | -0.671 ± 0.18 | -1.49 ± 0.26 |
| UCGUAGCAAUAUUACGGAUG |  | -1.89 ± 0.47 |
| UCGUAGCAAUAUUACGUAGU | -3.61 ± 0.25 | -1.99 ± 0.13 |
| UCGUAGCAAUAUUACGUAUA | -2.92 ± 0.31 | -1.01 ± 0.28 |
